This note sets out measurements from US6485941B1, “Inhibition of the carboxyltransferase component of acetyl-CoA carboxylase, and the use of such inhibition in anti-cancer and anti-lipogenic therapies” (Board of Supervisors of Louisiana State University and …, priority 2002, dated 2002).

Substrate in the data set: CC(C)(COP(=O)(O)OP(=O)(O)OC[C@H]1O[C@@H](n2cnc3c(N)ncnc32)[C@H](O)[C@@H]1OP(=O)(O)O)[C@@H](O)C(=O)NCCC(=O)NCCSC(=O)CC(=O)O
Description: Carboxyltransferase inhibition, assayed in the reverse direction with coupled spectrophotometric detection. Particulars: other: substrate of carboxyltransferase. The data set is classed as biochemical, E. coli.
Description: Carboxyltransferase was purified from a strain of E. coli that overexpresses the genes encoding the α and β subunits of the enzyme.
Carboxyltransferase was assayed in the reverse direction: the production of acetyl-CoA was detected by using the coupling enzymes malate dehydrogenase and citrate synthase, and the reduction of NAD^+ was measured spectrophotometrically by the method of C.
In Equations [1] and [2], v is the initial velocity, Vm is the maximal velocity, A is the substrate concentration, I is the concentration of inhibitor, Km is the Michaelis constant, Kis is the slope inhibition constant, and Kii is the intercept inhibition constant.
v=VmA/(Km(1+I/Kis)+A(1+I/Kii)) [2]
The activity of carboxyltransferase was measured in the reverse direction using malonyl-CoA and biocytin as substrates.

B1: carboxyltransferase component of E. coli acetyl-CoA carboxylase (Escherichia coli K-12) (protein)
chain 1: MSLNFLDFEQPIAELEAKIDSLTAVSRQDEKLDINIDEEVHRLREKSVELTRKIFADLGAWQIAQLARHPQRPYTLDYVRLAFDEFDELAGDRAYADDKAIVGGIARLDGRPVMIIGHQKGRETKEKIRRNFGMPAPEGYRKALRLMQMAERFKMPIITFIDTPGAYPGVGAEERGQSEAIARNLREMSRLGVPVVCTVIGEGGSGGALAIGVGDKVNMLQYSTYSVISPEGCASILWKSADKAPLAAEAMGIIAPRLKELKLIDSIIPEPLGGAHRNPEAMAASLKAQLLADLADLDVLSTEDLKNRRYQRLMSYGYA
chain 2: MSWIERIKSNITPTRKASIPEGVWTKCDSCGQVLYRAELERNLEVCPKCDHHMRMTARNRLHSLLDEGSLVELGSELEPKDVLKFRDSKKYKDRLASAQKETGEKDALVVMKGTLYGMPVVAAAFEFAFMGGSMGSVVGARFVRAVEQALEDNCPLICFSASGGARMQEALMSLMQMAKTSAALAKMQERGLPYISVLTDPTMGGVSASFAMLGDLNIAEPKALIGFAGPRVIEQTVREKLPPGFQRSEFLIEKGAIDMIVRRPEMRLKLASILAKLMNLPAPNPEAPREGVVVPPVPDQEPEA
notes: made in house; host or cells: E. coli overexpression strain (Blanchard et al. 1998; G. Waldrop, LSU)
As usually defined, the Km is the substrate concentration at which the rate is half of its maximum. Consider B1, for which the Michaelis-Menten constant (Km) is 100 µM.
